Data on one substance can be found in PMC7867571.

This experiment has as its target H. influenzae VapXD2 heterotrimer (VapD homodimer with one VapX) (Haemophilus influenzae (non-typeable, strain 86-028NP)) (UniProt P71351). Kind of experiment: crystal structure.

For the substance “H. influenzae VapXD2 heterotrimer (VapD homodimer with one VapX) (from UniProt P71351 1-91; Q4QN94 1-63) (complex)”, the stoichiometry N was determined as 3.

For orientation: stoichiometry N means a count of units in the complex or per binding partner.
